Experimental data reported in PMC7118173 (Nature Communications, 2020).

How the values were obtained:
[1] = test system: FtsZ
Method: After, 100 µl of the mixture were place in a 96-well-plate that contained GTP at 2 mM final concentration. Reactions were incubated at room temperature for 10 min and 100 µl of the developing reagent was added. The mixture was incubated at room temperature for 25 min to allow development of the green color and absorbance was measured at 620 nm using a Varioskan™ LUX (Thermo Fisher Scientific). Reactions were performed in triplicate for each condition.

[2] = Negative stain EM of SepF rings; format: physicochemical
Method: For all samples, 400 mesh carbon coated grids (Electron Microscopy Sciences; CF 400-Cu) were glow-discharged on an ELMO system for 30 sec at 2 mA. 5 µl samples were applied onto the grids and incubated for 30 s, the sample was blotted, washed in 3 drops of water and then stained with 2% (weight/vol) uranyl acetate. Images were recorded on a Gatan UltraScan4000 charged coupled device (CCD) camera (Gatan) on a Tecnai T12 BioTWINLaB6 electron microscope operating at a voltage of 120 kV.

[3] = Negative stain EM of SUVs with SepF; format: biochemical; conditions: end-point of SepF + SUVs reaction, 50 μM
[4] = test system: FtsZ and SUVs; test: Cryo-EM of ternary complex FtsZ-GTP + SepF + SUVs; format: biochemical, C. glutamicum; conditions: 100 μM SUVs, 10 μM SepF, 10 μM FtsZ, 3 mM GTP
Method: 5 µl of sample were deposited onto glow-discharged lacey carbon copper grids (Ted Pella) and plunge-frozen in liquid ethane using a Leica EM-CPC. Cryo-EM data acquisition was performed on a JEOL 2200FS (Jeol, Japan) 200 kV cryo-electron microscope equipped with an Omega in-column energy filter. High magnification (30,000×, corresponding pixel size 0.32 nm) zero-loss (slit: 20 eV) images were collected at nominal defocus between 1 and 4 µm depending on the experiment on a Gatan USC1000 slow scan CCD camera.

[5] = test system: SepF; test: Western blots of whole-cell extracts (SepF depletion / expression); format: cell-based, C. glutamicum; conditions: SepF under Ptac, WT
Method: 24 homogenizer. Crude extracts (120 μg) were analyzed by SDS-PAGE, electro-transferred onto a 0.2 μm Nitrocellulose membrane and blocked with 5% (w/v) skimmed milk. Membranes were incubated with an anti-SepF antibody (produced by Covalab, Supplementary Fig. 25a), an anti-FtsZ antibody (produced by Proteogenix, Supplementary Fig. 25b) or an anti-mNeonGreen antibody (purchased from Chromotek) for 1 h at room temperature.

[6] = test system: FtsZ; conditions: 400 nm, 25 °C, 600 s, 100 mM KCl, 10 mM MgCl2, 25 mM Pipes pH 6.9, 15 µM proteins, GTP
Method: The mixture was placed into a quartz cuvette with a light path of 10 mm or a 96-well plate and 0.5−2 mM GTP or GMPCPP were added to the reaction mixture. Data acquisition started immediately using an UV–Visible Spectrophotometer (Thermo scientific Evolution 220) during 600 s at 25 °C using 400 nm for excitation and emission and spectra with slits widths of 1 nm or a Varioskan™ LUX plate reader (Thermo Fisher Scientific) with an excitation of 400 nm. Experiments were done in triplicates and measurements were taken every 15 s during 600 s and keeping a constant temperature of 25 °C.

[7] = test system: FtsZ; remark: listed apart in the source
[8] = test system: C. glutamicum ATCC13032 whole-cell extracts; test: SepF and FtsZ quantification by Western blot; format: cell-based, Corynebacterium glutamicum; conditions: 60 ugr loaded
[9] = test system: WT C. glutamicum; test: Number of ring-like structures per cell, overexpression in WT; format: cell-based, Corynebacterium glutamicum; conditions: for ring-like structures per cell: overexpression in WT background
[10] = test system: Pino-sepF strain; test: Growth curves / complementation of the Pino-sepF strain; conditions: SepF depletion with 1% myo-inositol, exogenous construct induced
Method: Positive colonies were grown in BHI media supplemented with 25 µg/ml kanamycin overnight at 30 °C and 120 rpm shaking.
All strains were plated in CGXII media plates with 4% (w/v) sucrose as a carbon source for 2 days at 30 °C and then single colonies were inoculated in 10 ml of CGXII media 4% (w/v) sucrose overnight at 30 °C and 120 rpm shaking. The next day, 20 ml of CGXII media supplemented with the appropriate repressor or inducer were inoculated with the overnight cultures to a starting OD600 of 1. OD600 measurements were taken every 1.5 h. Each growth curve represents the average of three different growth curves originally from three different single colonies. […] When required, CGXII media 4% (w/v) sucrose was supplemented with either 1% (w/v) myo-inositol, 50 ng/ml tetracycline or 1% (w/v) gluconate and 25 μg/ml kanamycin.

[11] = Dynamic light scattering; format: physicochemical; conditions: SUVs + SepF 50 µM each, pH 6.9, 25 °C
Method: Polydispersity of the samples was measured using Dyna-pro Plate Reader (Wyatt technology) equipped with an 830 nm laser and a temperature control module. The Dynamics software (version 7.9) was used to schedule data acquisition and data analysis. For each well, 20 measurements of 10 s were averaged and this operation was repeated 20 times for each condition at 25 °C. For samples containing FtsZCTD, the peptide was used at a final concentration of 100 µM. All the experiments were carried out as minimum three biological and technical replicates.

[12] = test system: SepF; test: SepF polymerization (turbidity) assay in the presence of SUVs; format: biochemical, C. glutamicum; conditions: SepF (or mutant) plus SUVs 50 µM each, pH 6.9, 25 °C
Method: When used, FtsZCTD was added at a final concentration of 100 μM.
Reverse phase evaporation was used to prepare small unilamellar vesicles (SUVs). A 10 mM lipid solution made of an 8:2 mixture of 1-palmitoyl-2-oleoyl phosphatidylcholine (POPC) and 1-palmitoyl-2-oleoylglycero-3-phosphoglycerol (POPG) (Avanti Polar Lipids) was prepared as described. Chloroform was removed by evaporation under vacuum conditions and the dried phospholipid film was resuspended in a mixture of diethyl ether and buffer (25 mM Hepes pH 7.4, 10 mM MgCl2 and 150 mM KCl). Diethyl ether was eliminated by reverse phase evaporation and by slowly decreasing the pressure to the vacuum. SUVs were obtained by sonication during 30 min at 4 °C. The diameter and charge of SUV were determined by measuring dynamic light scattering (DLS) and electrophoretic mobility profiles on a Zetasizer Nano instrument (Malvern Instruments).

[13] = test system: Pino-sepF strain; test: Scarlet fluorescence localization in the Pino-sepF strain; format: cell-based, Corynebacterium glutamicum; conditions: 1% myo-inositol plus 1% gluconate
Method: For imaging, cultures of C. glutamicum were grown in BHI or minimal medium CGXII during the day, and washed and inoculated into CGXII media for overnight growth. The following day cultures were diluted to OD600 = 1 and grown to the required OD (early exponential phase) for imaging. For HADA labeling, cultures were incubated with 0.5 mM HADA for 20 min at 30 °C in the dark. Two percent agarose pads were prepared with the corresponding growth medium and cells were visualized using a Zeiss Axio Observer Z1 microscope fitted with an Orca Flash 4 V2 sCMOS camera (Hamamatsu), and a Pln-Apo 63×/1.4 oil Ph3 objective. Images were collected using Zen Blue 2.6 (Zeiss) and analyzed using the software Fiji[70] and the plugin MicrobeJ[71] to generate violin plots and fluorescent intensity heatmaps. Statistical analyses of cell lengths are summarized in Supplementary Tables 5 and 6. The experiments were performed as biological triplicates. Some autofluorescence is observed for wild-type C. glutamicum as shown in Supplementary Fig. 24.

[14] = test system: FtsZ; conditions: immunoprecipitation coupled to crosslinking; unpaired t-test p 0.004
Method: Cells were harvested, washed, and normalized by resuspending cell pellets in PBS-T (1X PBS, 0.1% v/v Tween-80) to give a final OD600 of 3. The cell suspensions were cross-linked with 0.25% v/v of formaldehyde for 20 min at 30 °C with gentle agitation. The crosslinking reaction was stopped by adding 1.25 M glycine and incubated for 5 min at room temperature. Cells were resuspended in 50 mM Bis-Tris pH 7.4, 75 mM aminocaproic acid, 1 mM MgSO4, 1× Benzonase, 1× Complete Protease inhibitors cocktail (ROCHE) and disrupted at 4 °C with 0.1 mm glass beads and using a [sequence] 24 homogenizer. After lysis, 0.1% n-Dodecyl-β-D-Maltopyranoside was added and the total extract was incubated for 1 h at 4 °C. Cell lysates were centrifuged at 4 °C for 10 min at 14,000 rpm and the soluble fraction was collected and protein levels quantified.
Detergent-solubilized protein extracts were incubated with 50 μl of magnetic beads cross-linked with 10 μg of purified anti-Scarlet antibody (produced by Covalab). […] Tryptic peptides from three replicates of each condition were analyzed using a nano-HPLC (Ultimate 3000, Thermo) coupled to a hybrid quadrupole-orbitrap mass spectrometer (Q-Exactive Plus, Thermo). […]
Patternlab for proteomics was used for label-free quantitation analyses using extracted ion chromatogram (XIC).

[15] = test system: Pino-sepF strain; test: Cell length distribution (violin plots), Pino-sepF strains; format: cell-based, Corynebacterium glutamicum; conditions: 1% myo-inositol + 1% gluconate, t = 6, replicate 1, listed as PgntK_SepF(K125R/F131A)_Scarlet
Method: For imaging, cultures of C. glutamicum were grown in BHI or minimal medium CGXII during the day, and washed and inoculated into CGXII media for overnight growth. The following day cultures were diluted to OD600 = 1 and grown to the required OD (early exponential phase) for imaging. For HADA labeling, cultures were incubated with 0.5 mM HADA for 20 min at 30 °C in the dark. Two percent agarose pads were prepared with the corresponding growth medium and cells were visualized using a Zeiss Axio Observer Z1 microscope fitted with an Orca Flash 4 V2 sCMOS camera (Hamamatsu), and a Pln-Apo 63×/1.4 oil Ph3 objective. Images were collected using Zen Blue 2.6 (Zeiss) and analyzed using the software Fiji[70] and the plugin MicrobeJ[71] to generate violin plots and fluorescent intensity heatmaps. […] The experiments were performed as biological triplicates.

B1: SepF: C. glutamicum SepF (cg2363), full-length (protein)
chain: MSMLKKTKEFFGLAPYEAEHEDAYYADEPRYEGTAAYAPEYRERDYGYAPEAPAPVAPSPAPRSYQSTIVPVELHSFEDAQVIGGAFRDGDAVVFDMSLLSREEARRIVDFAAGLCFALRGKMQKIDSVTFAVVPELSNISTSELERAARIR
modifications: left off: His6, N-terminal, cleaved | SUMO, N-terminal, cleaved
- effect on GTPase activity of FtsZ ([1]; 15 µM SepF and FtsZ, F test p=0.5872): did not significantly affect the GTPase activity of FtsZ
- GTPase activity (phosphate release), mean ([1]; 15 µM each, 2 mM GTP, pH 6.9, room temperature, 10 min, mean, n = 11): 0.09 nmol
- ring-like structures by EM [2]: unsuccessful
- vesicle morphology by EM [3]: lipid vesicles were tubulated
- lipid binding in ternary complex [4]: dimeric form of SepF retains lipid-binding capability
- protein overexpression upon induction [5]: ~ 30 fold
- effect on FtsZ polymerization / bundling [6]: strong FtsZ bundling effect
- FtsZ filament morphology by EM [7]: thick bundles of FtsZ protofilaments, as well as highly curved filaments
- band volume in whole-cell extract ([8]; ON S (over-night, sucrose)): 455544
- band volume in whole-cell extract ([8]; ON S+G (over-night, sucrose + gluconate)): 420204
- band volume in whole-cell extract ([8]; T6 S (6 h, sucrose)): 522995
- band volume in whole-cell extract ([8]; T6 S+G (6 h, sucrose + gluconate)): 618345
- ring-like structures per cell [9]: multiple-rings phenotype is not observed
- complementation of SepF depletion (growth) [10]: rescued
- particle size by DLS [11]: formation of large structures
- polymerization with SUVs (turbidity) [12]: SepF concentration-dependent polymerization

B2: SepFK125E/F131A-Scarlet: Scarlet-tagged SepF impaired for FtsZ binding (protein)
chain: MSMLKKTKEFFGLAPYEAEHEDAYYADEPRYEGTAAYAPEYRERDYGYAPEAPAPVAPSPAPRSYQSTIVPVELHSFEDAQVIGGAFRDGDAVVFDMSLLSREEARRIVDFAAGLCFALRGKMQEIDSVTAAVVPELSNISTSELERAARIR
modifications: left off: mScarlet-I, C-terminal, kept
- localization of Scarlet construct [13]: diffuse in the cytoplasm
- fold reduction of FtsZ binding (normalized FtsZ) versus SepF-Scarlet [14]: 7.2 fold
- mean cell length [15]: 9.96
- frequency of cells with n septa (ring-like structures) ([9]; n septa 0, replicate 1): 0.122
- frequency of cells with n septa (ring-like structures) ([9]; n septa 0, replicate 2): 0.074
- frequency of cells with n septa (ring-like structures) ([9]; n septa 0, replicate 3): 0.099
- frequency of cells with n septa (ring-like structures) ([9]; n septa 1, replicate 1): 0.227
- frequency of cells with n septa (ring-like structures) ([9]; n septa 1, replicate 2): 0.25
- frequency of cells with n septa (ring-like structures) ([9]; n septa 1, replicate 3): 0.189
- frequency of cells with n septa (ring-like structures) ([9]; n septa 2, replicate 1): 0.246
- frequency of cells with n septa (ring-like structures) ([9]; n septa 2, replicate 2): 0.193
- frequency of cells with n septa (ring-like structures) ([9]; n septa 2, replicate 3): 0.186
- frequency of cells with n septa (ring-like structures) ([9]; n septa 3, replicate 1): 0.241
- frequency of cells with n septa (ring-like structures) ([9]; n septa 3, replicate 2): 0.22
- frequency of cells with n septa (ring-like structures) ([9]; n septa 3, replicate 3): 0.232
- frequency of cells with n septa (ring-like structures) ([9]; n septa 4, replicate 1): 0.102
- frequency of cells with n septa (ring-like structures) ([9]; n septa 4, replicate 2): 0.152
- frequency of cells with n septa (ring-like structures) ([9]; n septa 4, replicate 3): 0.133
- frequency of cells with n septa (ring-like structures) ([9]; n septa 5, replicate 1): 0.042
- frequency of cells with n septa (ring-like structures) ([9]; n septa 5, replicate 2): 0.077
- frequency of cells with n septa (ring-like structures) ([9]; n septa 5, replicate 3): 0.11
- frequency of cells with n septa (ring-like structures) ([9]; n septa 6, replicate 1): 0.014
- frequency of cells with n septa (ring-like structures) ([9]; n septa 6, replicate 2): 0.03
- frequency of cells with n septa (ring-like structures) ([9]; n septa 6, replicate 3): 0.033
- frequency of cells with n septa (ring-like structures) ([9]; n septa 7, replicate 1): 0.006
- frequency of cells with n septa (ring-like structures) ([9]; n septa 7, replicate 2): 0.003
- frequency of cells with n septa (ring-like structures) ([9]; n septa 7, replicate 3): 0.015
- ring-like structures per cell [9]: net increase in the number of ring-like structures per cell
- complementation of SepF depletion (growth) [10]: completely failed to complement
